In publication doi:10.1101/2021.01.14.426755 (bioRxiv, 2021):

T1: Rad4 (yeast, UniProt P14736 1-754)
T1 sequence: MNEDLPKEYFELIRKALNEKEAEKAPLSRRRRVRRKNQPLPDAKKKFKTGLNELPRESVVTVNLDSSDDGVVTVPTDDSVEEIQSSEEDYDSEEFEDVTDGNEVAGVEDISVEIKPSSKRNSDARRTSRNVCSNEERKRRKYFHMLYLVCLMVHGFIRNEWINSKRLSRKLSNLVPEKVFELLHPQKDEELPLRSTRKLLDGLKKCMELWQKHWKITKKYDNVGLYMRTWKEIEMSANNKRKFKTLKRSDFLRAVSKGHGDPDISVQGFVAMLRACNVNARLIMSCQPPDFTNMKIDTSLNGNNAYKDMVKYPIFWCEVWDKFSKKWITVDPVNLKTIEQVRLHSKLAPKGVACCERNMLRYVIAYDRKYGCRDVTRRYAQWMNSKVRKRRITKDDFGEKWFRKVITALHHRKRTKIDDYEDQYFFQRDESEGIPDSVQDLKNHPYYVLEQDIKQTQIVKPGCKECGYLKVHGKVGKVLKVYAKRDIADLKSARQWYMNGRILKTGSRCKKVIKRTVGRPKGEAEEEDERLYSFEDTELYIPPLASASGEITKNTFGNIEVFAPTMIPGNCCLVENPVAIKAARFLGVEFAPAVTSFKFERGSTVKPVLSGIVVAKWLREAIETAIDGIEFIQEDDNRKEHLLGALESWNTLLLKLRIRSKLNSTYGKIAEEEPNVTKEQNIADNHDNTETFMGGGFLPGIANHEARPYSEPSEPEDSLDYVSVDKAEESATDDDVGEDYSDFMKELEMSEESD

T2: Rad3 (yeast (endogenous, purified from yeast), UniProt P06839 1-778)
T2 sequence: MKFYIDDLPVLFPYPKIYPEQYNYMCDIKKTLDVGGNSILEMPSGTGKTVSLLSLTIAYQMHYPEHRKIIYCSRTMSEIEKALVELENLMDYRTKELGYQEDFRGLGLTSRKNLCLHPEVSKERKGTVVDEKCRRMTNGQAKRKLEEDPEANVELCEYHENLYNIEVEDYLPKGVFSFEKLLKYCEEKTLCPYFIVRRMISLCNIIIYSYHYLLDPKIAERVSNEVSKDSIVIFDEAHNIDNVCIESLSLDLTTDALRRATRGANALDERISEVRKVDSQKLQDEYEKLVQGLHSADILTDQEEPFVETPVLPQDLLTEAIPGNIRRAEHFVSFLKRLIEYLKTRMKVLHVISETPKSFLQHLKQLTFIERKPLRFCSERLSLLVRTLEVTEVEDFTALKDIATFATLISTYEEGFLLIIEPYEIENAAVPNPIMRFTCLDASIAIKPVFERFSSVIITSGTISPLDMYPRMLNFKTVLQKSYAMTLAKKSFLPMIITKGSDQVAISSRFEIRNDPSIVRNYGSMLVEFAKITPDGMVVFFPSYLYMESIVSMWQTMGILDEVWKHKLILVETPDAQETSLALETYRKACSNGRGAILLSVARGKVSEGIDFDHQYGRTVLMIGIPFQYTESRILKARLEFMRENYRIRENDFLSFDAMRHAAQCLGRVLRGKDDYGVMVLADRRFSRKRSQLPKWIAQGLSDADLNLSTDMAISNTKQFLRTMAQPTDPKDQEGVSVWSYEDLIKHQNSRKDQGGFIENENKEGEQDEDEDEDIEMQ

T3: Rad4-Rad23-Rad33 complex (yeast, UniProt P14736 1-754; P32628 1-398; Q04231 1-177)
T3 sequence 1: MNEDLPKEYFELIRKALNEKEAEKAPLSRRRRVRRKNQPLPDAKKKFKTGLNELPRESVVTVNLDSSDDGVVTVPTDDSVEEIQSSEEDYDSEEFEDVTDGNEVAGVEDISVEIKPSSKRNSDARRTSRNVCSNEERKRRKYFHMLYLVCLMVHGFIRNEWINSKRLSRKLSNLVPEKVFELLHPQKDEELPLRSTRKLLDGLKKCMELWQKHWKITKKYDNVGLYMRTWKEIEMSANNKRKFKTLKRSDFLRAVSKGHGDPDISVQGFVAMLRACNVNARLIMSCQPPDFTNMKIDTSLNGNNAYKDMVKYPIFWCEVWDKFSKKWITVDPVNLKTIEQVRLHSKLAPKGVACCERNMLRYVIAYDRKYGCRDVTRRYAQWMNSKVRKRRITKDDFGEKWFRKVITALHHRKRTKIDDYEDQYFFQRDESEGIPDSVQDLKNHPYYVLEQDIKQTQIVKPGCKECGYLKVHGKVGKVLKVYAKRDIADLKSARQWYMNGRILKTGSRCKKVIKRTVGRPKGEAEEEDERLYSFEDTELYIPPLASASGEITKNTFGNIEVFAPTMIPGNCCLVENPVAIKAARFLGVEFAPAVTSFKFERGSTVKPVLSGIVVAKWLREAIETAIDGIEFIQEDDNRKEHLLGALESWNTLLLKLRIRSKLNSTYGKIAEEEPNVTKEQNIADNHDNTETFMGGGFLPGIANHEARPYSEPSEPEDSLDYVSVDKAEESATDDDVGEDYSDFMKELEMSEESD
T3 sequence 2: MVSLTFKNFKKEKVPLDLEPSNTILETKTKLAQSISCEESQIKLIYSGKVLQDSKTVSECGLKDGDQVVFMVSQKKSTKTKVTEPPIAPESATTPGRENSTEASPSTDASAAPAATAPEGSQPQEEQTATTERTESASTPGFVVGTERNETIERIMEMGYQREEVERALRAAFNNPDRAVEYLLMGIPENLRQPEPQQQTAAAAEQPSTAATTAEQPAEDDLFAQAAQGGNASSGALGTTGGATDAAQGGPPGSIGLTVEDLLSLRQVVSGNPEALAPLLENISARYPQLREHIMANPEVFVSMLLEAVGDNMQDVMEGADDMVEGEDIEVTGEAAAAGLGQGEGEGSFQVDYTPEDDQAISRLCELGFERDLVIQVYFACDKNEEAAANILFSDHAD
T3 sequence 3: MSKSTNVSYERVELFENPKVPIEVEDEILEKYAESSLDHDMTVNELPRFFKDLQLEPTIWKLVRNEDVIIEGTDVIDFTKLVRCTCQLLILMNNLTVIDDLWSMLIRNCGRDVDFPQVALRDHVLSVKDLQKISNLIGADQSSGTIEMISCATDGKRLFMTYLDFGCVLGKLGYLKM

B1: Rad33 (natural protein)
chain: MSKSTNVSYERVELFENPKVPIEVEDEILEKYAESSLDHDMTVNELPRFFKDLQLEPTIWKLVRNEDVIIEGTDVIDFTKLVRCTCQLLILMNNLTVIDDLWSMLIRNCGRDVDFPQVALRDHVLSVKDLQKISNLIGADQSSGTIEMISCATDGKRLFMTYLDFGCVLGKLGYLKM
B2: Ssl1 (natural protein)
chain: MAPVVISESEEDEDRVAITRRTKRQVHFDGEGDDRVDQQQQQHSSSHRDRDKHVQRKKKKRLSNRNLQGSNGGYAWEDEIKRSWDLVKVDDEGDMASLVASIVEARKKRTAKKNITPYQRGIIRSLILTLDCSEAMLEKDLRPNRHAMIIQYAIDFVHEFFDQNPISQMGIIIMRNGLAQLVSQVSGNPQDHIDALKSIRKQEPKGNPSLQNALEMARGLLLPVPAHCTREVLIVFGSLSTTDPGDIHQTIDSLVSEKIRVKVLGLSAQVAICKELCKATNYGDESFYKILLDETHLKELFNEAVTPLPVNKINKGFTLVKMGFPTRIFEDTPTFCSCHSKLVYGGYFCPNCHSKVCSLPTVCPCCDLMLILSTHLARSYHHLMPLKTFAEVPTTEKFRSEDCFSCQSRFPILKNHKNGKLLTSSRYRCEDCKQEFCVDCDVFIHEILHNCPGCESKPVIT
B3: Ssl2 (natural protein)
chain: MTDVEGYQPKSKGKIFPDMGESFFSSDEDSPATDAEIDENYDDNRETSEGRGERDTGAMVTGLKKPRKKTKSSRHTAADSSMNQMDAKDKALLQDTNSDIPADFVPDSVSGMFRSHDFSYLRLRPDHASRPLWISPSDGRIILESFSPLAEQAQDFLVTIAEPISRPSHIHEYKITAYSLYAAVSVGLETDDIISVLDRLSKVPVAESIINFIKGATISYGKVKLVIKHNRYFVETTQADILQMLLNDSVIGPLRIDSDHQVQPPEDVLQQQLQQTAGKPATNVNPNDVEAVFSAVIGGDNEREEEDDDIDAVHSFEIANESVEVVKKRCQEIDYPVLEEYDFRNDHRNPDLDIDLKPSTQIRPYQEKSLSKMFGNGRARSGIIVLPCGAGKTLVGITAACTIKKSVIVLCTSSVSVMQWRQQFLQWCTLQPENCAVFTSDNKEMFQTESGLVVSTYSMVANTRNRSHDSQKVMDFLTGREWGFIILDEVHVVPAAMFRRVVSTIAAHAKLGLTATLVREDDKIGDLNFLIGPKLYEANWMELSQKGHIANVQCAEVWCPMTAEFYQEYLRETARKRMLLYIMNPTKFQACQFLIQYHERRGDKIIVFSDNVYALQEYALKMGKPFIYGSTPQQERMNILQNFQYNDQINTIFLSKVGDTSIDLPEATCLIQISSHYGSRRQEAQRLGRILRAKRRNDEGFNAFFYSLVSKDTQEMYYSTKRQAFLVDQGYAFKVITHLHGMENIPNLAYASPRERRELLQEVLLKNEEAAGIEVGDDADNSVGRGSNGHKRFKSKAVRGEGSLSGLAGGEDMAYMEYSTNKNKELKEHHPLIRKMYYKNLKK
B4: Tfb1 (natural protein)
chain: MSHSGAAIFEKVSGIIAINEDVSPAELTWRSTDGDKVHTVVLSTIDKLQATPASSEKMMLRLIGKVDESKKRKDNEGNEVVPKPQRHMFSFNNRTVMDNIKMTLQQIISRYKDADIYEEKRRREESAQHTETPMSSSSVTAGTPTPHLDTPQLNNGAPLINTAKLDDSLSKEKLLTNLKLQQSLLKGNKVLMKVFQETVINAGLPPSEFWSTRIPLLRAFALSTSQKVGPYNVLSTIKPVASSENKVNVNLSREKILNIFENYPIVKKAYTDNVPKNFKEPEFWARFFSSKLFRKLRGEKIMQNDRGDVIIDRYLTLDQEFDRKDDDMLLHPVKKIIDLDGNIQDDPVVRGNRPDFTMQPGVDINGNSDGTVDILKGMNRLSEKMIMALKNEYSRTNLQNKSNITNDEEDEDNDERNELKIDDLNESYKTNYAIIHLKRNAHEKTTDNDAKSSADSIKNADLKVSNQQMLQQLSLVMDNLINKLDLNQVVPNNEVSNKINKRVITAIKINAKQAKHNNVNSALGSFVDNTSQANELEVKSTLPIDLLESCRMLHTTCCEFLKHFYIHFQSGEQKQASTVKKLYNHLKDCIEKLNELFQDVLNGDGESMSNTCTAYLKPVLNSITLATHKYDEYFNEYNNNSN

What was measured:
Rad4 = biological target: T1, Rad4; test: cryo-EM structure
Ssl2 = biological target: B3; test: cryo-EM structure
Rad3 = biological target: T2, Rad3; test: cryo-EM structure
Rad4-Rad23-Rad33 complex = biological target: T3, Rad4-Rad23-Rad33 complex; test: cross-linking

Row | Binder | binding result (Rad4) | binding result (Ssl2) | binding result (Rad3) | binding result (Rad4-Rad23-Rad33 complex)
1 | B1 | binds | binds |  | 
2 | B2 |  |  | binds | 
3 | B3 |  |  |  | binds
4 | B4 | binds |  | binds | binds
